Data on four molecules can be found in patent US20050003400A1 (Amgen, published 2005).

The labels stand for the following.
B1: recombinant human OPG [22-201]-Fc fusion protein (Fc fusion, UniProt O00300 22-201, looked up)
chain: ETFPPKYLHYDEETSHQLLCDKCPPGTYLKQHCTAKWKTVCAPCPDHYYTDSWHTSDECLYCSPVCKELQYVKQECNRTHNRVCECKEGRYLEIEFCLKHRSCPPGFGVVQAGTPERNTVCKRCPDGFFSNETSSKAPCRKHTNCSVFGLLLTQKGNATHDNICSGNSESTQKCGIDVTL
notes: construct described in U.S. Ser. No. 08/706,945; also called OPG-Fc; OPG Fc fusion protein; not shown: human IgG1 Fc domain
B2: chimeric ATAR extracellular domain-Fc fusion protein (Fc fusion, UniProt Q92956 39-202, looked up)
chain: LPSCKEDEYPVGSECCPKCSPGYRVKEACGELTGTVCEPCPPGTYIAHLNGLSKCLQCQMCDPAMGLRASRNCSRTENAVCGCSPGHFCIVQDGDHCAACRAYATSSPGQRVQKGGTESQDTLCQNCPPGTFSPNGTLEECQHQTKCSWLVTKAGAGTSSSHWV
notes: extracellular domain; also called sATAR-Fc; ATAR-Fc fusion protein; not shown: human IgG1 Fc domain
B3: murine OPG binding protein (full length, 316 aa, encoded by clone 32D-F3), on the cell surface (ligand)
chain: MRRASRDYGKYLRSSEEMGSGPGVPHEGPLHPAPSAPAPAPPPAASRSMFLALLGLGLGQVVCSIALFLYFRAQMDPNRISEDSTHCFYRILRLHENAGLQDSTLESEDTLPDSCRRMKQAFQGAVQKELQHIVGPQRFSGAPAMMEGSWLDVAQRGKPEAQPFAHLTINAASIPSGSHKVTLSSWYHDRGWAKISNMTLSNGKLRVNQDGFYYLYANICFRHHETSGSVPTDYLQLMVYVVKTSIKIPSSHNLMKGGSTKNWSGNSEFHFYSINVGGFFKLRAGEEISIQVSNPSLLDPDQDATYFGAFKVQDID
notes: Type II transmembrane protein; also called OPGbp; OPG-bp
B4: recombinant mouse OPG [22-194]-Fc fusion protein (Fc fusion, UniProt O08712 22-194, looked up)
chain: ETLPPKYLHYDPETGHQLLCDKCAPGTYLKQHCTVRRKTLCVPCPDHSYTDSWHTSDECVYCSPVCKELQSVKQECNRTHNRVCECEEGRYLEIEFCLKHRSCPPGSGVVQAGTPERNTVCKKCPDGFFSGETSSKAPCIKHTNCSTFGLLLIQKGNATHDNVCSGNREATQK
notes: also called OPG-Fc; not shown: Fc domain, detected with anti-human IgG

The target in test [1] is B3. Put plainly: staining of 32D cells with 5 ug/ml OPG-Fc and PE anti-human IgG, FACS.
In test [2] the target is B3. The test is described as follows: immunostaining of COS-7 cells transfected with 32D-F3. The protocol: Arrayed pools of 32D cDNA expression library were individually lipofected into COS-7 cultures, then assayed for the acquisition of a cell surface OPG binding protein. To do this, COS-7 cells were plated at a density of 1×10⁶ per ml in six-well tissue culture plates (Costar), then cultured overnight in DMEM (Gibco) containing 10% FCS. Approximately 2 μg of plasmid DNA from each pool was diluted into 0.5 ml of serum-free DMEM, then sterilized by centrifugation through a 0.2 μm Spin-X column (Costar). Simultaneously, 10 μl of Lipofectamine (Life Technologies Cat # 18324-012) was added to a separate tube containing 0.5 ml of serum-free DMEM. The DNA and Lipofectamine solutions were mixed, and allowed to incubate at RT for 30 min. The COS-7 cell cultures were then washed with serum-free DMEM, and the DNA-lipofectamine complexes were exposed to the cultures for 2-5 hr at 37° C. After this period, the media was removed, and replaced with DMEM containing 10% FCS. The cells were then cultured for 48 hr at 37° C.
Using this approach, a total of approximately 300,000 independent 32D cDNA clones were screened, represented by 300 transfected pools of 1000 clones each. A single well was identified that contained cells which acquired the ability to be specifically decorated by the OPG-Fc fusion protein. […]

In a further test the target is T1, purified human IgG1 Fc (human, UniProt P01857-1 104-330 = IgG part, limits assumed).
T1 construct: domain: Fc
Put plainly: staining of 32D cells, FACS. The protocol:
Cell lines that grew as adherent cultures in vitro were treated using the following methods: Cells were plated into 24 well tissue culture plates (Falcon), then allowed to grow to approximately 80% confluency. The growth media was then removed, and the adherent cultures were washed with phosphate buffered saline (PBS) (Gibco) containing 1% fetal calf serum (FCS). […] The OPG-Fc fusion protein solution was discarded, and the cells were washed in PBS-FCS solution as described above. The cultures were then exposed to phycoeyrthrin-conguated goat F(ab′) anti-human IgG secondary antibody (Southern Biotechnology Associates Cat. # 2043-09) diluted into PBS-FCS. After a 30-45 min incubation at 0° C., the solution was discarded, and the cultures were washed as described above. The cells were then analyzed by immunofluorescent microscopy to detect cell lines which express a cell surface OPG binding protein.
Suspension cell cultures were analyzed in a similar manner with the following modifications: The diluent and wash buffer consisted of calcium- and magnesium-free phosphate buffered saline containing 1% FCS. […] The cells were then analyzed by fluorescence activated cell sorting (FACS) using a Becton Dickinson FACscan.

With B1, the binding result in test [1] is “binds”.

With B2, the binding result in test [2] is on record as “no binding”.

With B3, the binding result with purified human IgG1 Fc is on record as “no binding”.

As to B4, in test [1], the binding result is reported as “binds”.
